Assay results as given in paper PMC9396398, “Crystal structure of Ankyrin-G in complex with a fragment of Neurofascin reveals binding mechanisms required for integrity of the axon initial segment” (The Journal of Biological Chemistry, 2022).

B1: AnkG ANK repeats (residues 38-855, R1-24) [not stated] / Nfasc ankyrin-binding domain (ABD, residues 1187-1214) [not stated] (parent)
chain 1: SDDSLVDYGEGGEGQFNEDGSFIGQYTV
chain 2: KSDANASYLRAARAGHLEKALDYIKNGVDVNICNQNGLNALHLASKEGHVEVVSELLQREANVDAATKKGNTALHIASLAGQAEVVKVLVTNGANVNAQSQNGFTPLYMAAQENHLEVVRFLLDNGASQSLATEDGFTPLAVALQQGHDQVVSLLLENDTKGKVRLPALHIAARKDDTKAAALLLQNDTNADIESKMVVNRATESGFTPLHIAAHYGNINVATLLLNRAAAVDFTARNDITPLHVASKRGNANMVKLLLDRGAKIDAKTRDGLTPLHCGARSGHEQVVEMLLDRAAPILSKTKNGLSPLHMATQGDHLNCVQLLLQHNVPVDDVTNDYLTALHVAAHCGHYKVAKVLLDKKANPNAKALNGFTPLHIACKKNRIRVMELLLKHGASIQAVTESGLTPIHVAAFMGHVNIVSQLMHHGASPNTTNVRGETALHMAARSGQAEVVRYLVQDGAQVEAKAKDDQTPLHISARLGKADIVQQLLQQGASPNAATTSGYTPLHLSAREGHEDVAAFLLDHGASLSITTKKGFTPLHVAAKYGKLEVASLLLQKSASPDAAGKSGLTPLHVAAHYDNQKVALLLLDQGASPHAAAKNGYTPLHIAAKKNQMDIATSLLEYGADANAVTRQGIASVHLAAQEGHVDMVSLLLSRNANVNLSNKSGLTPLHLAAQEDRVNVAEVLVNQGAHVDAQTKMGYTPLHVGCHYGNIKIVNFLLQHSAKVNAKTKNGYTPLHQAAQQGHTHIINVLLQNNASPNELTVNGNTALAIARRLGYISVVDTLKVVTEEIMTTTTITEKHKMNVPETMNEVLDMS
B2: Nfasc 1198 to 1214 WT [not stated] / AnkG ANK repeats (residues 38-855, R1-24) [not stated] (parent)
chain 1: GEGQFNEDGSFIGQYTV
chain 2: B1 chain 2

Variants of: B1
Assay: ITC
Conditions: with Nfasc ankyrin-binding domain (ABD, residues 1187-1214); parent: 1

| Variant | ratio to parent |
| --- | --- |
| chain 2 V245Q | 6 |
| chain 2 M311Q | 8 |
| chain 2 I240Q L273Q | 14 |
| chain 2 T302A N304A | 11 |
| chain 2 H347A | 8 |
| chain 2 R281A Q314A | 3 |

Variants of: B2
Assay: ITC
Conditions: with AnkG ANK repeats (residues 38-855, R1-24); parent: 1

| Variant | ratio to parent |
| --- | --- |
| chain 1 T16A | 1 |
| chain 1 N6A | 1 |
| chain 1 I12Q | 3 |
| chain 1 F11Q | 4 |
| chain 1 D8A | 4 |
| chain 1 D8K | 23 |
| chain 1 S10A | 4 |
